Series [1] addresses 48S pre-initiation complex (40S, eIF1, eIF1A, ternary complex, AUG-containing model mRNA) (S. cerevisiae) (UniProt P32911). The experiment in a line: native gel or EMSA; gel shift monitoring [35S]-Met-tRNAi; 48S PICs with 1 µM uncapped AUG-containing model mRNA (1 µM eIF1, 1 µM eIF1A, 200 nM eIF2, 1 mM GDPNP•Mg2+, 2 nM Met-tRNAi, 20 nM 40S); eIF3 titrated 30-500 nM; 1X Recon buffer, 26 °C, 2 h; apparent KD, Hill equation; single experiments; apparent affinities ≤ 30 nM likely upper limits.

For series [2], the target named is 43S pre-initiation complex (40S, eIF1, eIF1A, ternary complex; no mRNA) (S. cerevisiae) (UniProt P32911). The experiment in a line: native gel or EMSA; gel shift monitoring [35S]-Met-tRNAi; 43S PICs without mRNA (1 µM eIF1, 1 µM eIF1A, 200 nM eIF2, 1 mM GDPNP•Mg2+, 2 nM Met-tRNAi, 30 nM 40S); eIF3 titrated 30-500 nM; 1X Recon buffer (30 mM HEPES-KOH pH 7.4, 100 mM KOAc, 3 mM Mg(OAc)2, 2 mM DTT), 26 °C, 2 h; apparent KD, Hill equation; single experiments; apparent affinities ≤ 30 nM likely upper limits. On the technique in general: A gel shift assay detects complexes by their altered migration in electrophoresis.

For series [3], the system named is yeast 43S PIC: 40S+eIF1+eIF1A+eIF2 (Met-tRNAi TC); for mRNA recruitment also eIF5, eIF4A, eIF4B, eIF4E-eIF4G (Saccharomyces cerevisiae). Kind of series: EMSA. The note with it: no eIF3, measurement 1, m7G cap, 30 mM HEPES-KOH pH 7.4, 100 mM KOAc, 3 mM Mg(OAc)2, 2 mM DTT, 1 mM GDPNP, 26 C, 2 h, native 4% THEM gel.
For series [4], the system named is yeast 43S PIC: 40S+eIF1+eIF1A+eIF2 (Met-tRNAi TC); for mRNA recruitment also eIF5, eIF4A, eIF4B, eIF4E-eIF4G;eIF3 (a Box37) (Saccharomyces cerevisiae;Saccharomyces cerevisiae). The experiment in a line: EMSA. The conditions noted are these: measurement 1; m7G cap; 30 mM HEPES-KOH pH 7.4, 100 mM KOAc, 3 mM Mg(OAc)2, 2 mM DTT, 1 mM GDPNP, 26 C, 2 h; native 4% THEM gel.

Series [5] has as its system yeast 43S PIC: 40S+eIF1+eIF1A+eIF2 (Met-tRNAi TC); for mRNA recruitment also eIF5, eIF4A, eIF4B, eIF4E-eIF4G;eIF3 (a Box6) (Saccharomyces cerevisiae;Saccharomyces cerevisiae). The experiment in a line: EMSA. The note with it: measurement 1; m7G cap; 30 mM HEPES-KOH pH 7.4, 100 mM KOAc, 3 mM Mg(OAc)2, 2 mM DTT, 1 mM GDPNP, 26 C, 2 h; native 4% THEM gel.
For series [6], the system named is yeast 43S PIC: 40S+eIF1+eIF1A+eIF2 (Met-tRNAi TC); for mRNA recruitment also eIF5, eIF4A, eIF4B, eIF4E-eIF4G;eIF3 (a H725P) (Saccharomyces cerevisiae;Saccharomyces cerevisiae). The experiment in a line: EMSA. The note with it: measurement 1; m7G cap; 30 mM HEPES-KOH pH 7.4, 100 mM KOAc, 3 mM Mg(OAc)2, 2 mM DTT, 1 mM GDPNP, 26 C, 2 h; native 4% THEM gel.
The test system of series [7] is yeast 43S PIC: 40S+eIF1+eIF1A+eIF2 (Met-tRNAi TC); for mRNA recruitment also eIF5, eIF4A, eIF4B, eIF4E-eIF4G;eIF3 (a R731I) (Saccharomyces cerevisiae;Saccharomyces cerevisiae). Kind of series: EMSA. The note with it: measurement 1; m7G cap; 30 mM HEPES-KOH pH 7.4, 100 mM KOAc, 3 mM Mg(OAc)2, 2 mM DTT, 1 mM GDPNP, 26 C, 2 h; native 4% THEM gel.
The test system of series [8] is yeast 43S PIC: 40S+eIF1+eIF1A+eIF2 (Met-tRNAi TC); for mRNA recruitment also eIF5, eIF4A, eIF4B, eIF4E-eIF4G;eIF3 (a delta8) (Saccharomyces cerevisiae;Saccharomyces cerevisiae). The experiment in a line: EMSA. The conditions noted are these: measurement 1, m7G cap, 30 mM HEPES-KOH pH 7.4, 100 mM KOAc, 3 mM Mg(OAc)2, 2 mM DTT, 1 mM GDPNP, 26 C, 2 h, native 4% THEM gel.

The test system of series [9] is yeast 43S PIC: 40S+eIF1+eIF1A+eIF2 (Met-tRNAi TC); for mRNA recruitment also eIF5, eIF4A, eIF4B, eIF4E-eIF4G;eIF3 (b prt1-1) (Saccharomyces cerevisiae;Saccharomyces cerevisiae). Kind of series: EMSA. The note with it: 30 mM HEPES-KOH pH 7.4, 100 mM KOAc, 3 mM Mg(OAc)2, 2 mM DTT, 1 mM GDPNP, 26 C, 2 h, native 4% THEM gel; for binding signal: measurement 1, m7G cap.
Series [10] relates to yeast 43S PIC: 40S+eIF1+eIF1A+eIF2 (Met-tRNAi TC); for mRNA recruitment also eIF5, eIF4A, eIF4B, eIF4E-eIF4G;eIF3 (b rnp1) (Saccharomyces cerevisiae;Saccharomyces cerevisiae). Kind of series: EMSA. The note with it: 30 mM HEPES-KOH pH 7.4, 100 mM KOAc, 3 mM Mg(OAc)2, 2 mM DTT, 1 mM GDPNP, 26 C, 2 h, native 4% THEM gel; for binding signal: measurement 1, m7G cap.
Series [11] concerns yeast 43S PIC: 40S+eIF1+eIF1A+eIF2 (Met-tRNAi TC); for mRNA recruitment also eIF5, eIF4A, eIF4B, eIF4E-eIF4G;eIF3 (c Box12-SPW) (Saccharomyces cerevisiae;Saccharomyces cerevisiae). Kind of series: EMSA. The note with it: measurement 1; m7G cap; 30 mM HEPES-KOH pH 7.4, 100 mM KOAc, 3 mM Mg(OAc)2, 2 mM DTT, 1 mM GDPNP, 26 C, 2 h; native 4% THEM gel.
Series [12] concerns yeast 43S PIC: 40S+eIF1+eIF1A+eIF2 (Met-tRNAi TC); for mRNA recruitment also eIF5, eIF4A, eIF4B, eIF4E-eIF4G;eIF3 (c GAP85) (Saccharomyces cerevisiae;Saccharomyces cerevisiae). Kind of series: EMSA. The note with it: measurement 1; m7G cap; 30 mM HEPES-KOH pH 7.4, 100 mM KOAc, 3 mM Mg(OAc)2, 2 mM DTT, 1 mM GDPNP, 26 C, 2 h; native 4% THEM gel.
The test system of series [13] is yeast 43S PIC: 40S+eIF1+eIF1A+eIF2 (Met-tRNAi TC); for mRNA recruitment also eIF5, eIF4A, eIF4B, eIF4E-eIF4G;eIF3 (c delta60) (Saccharomyces cerevisiae;Saccharomyces cerevisiae). The experiment in a line: EMSA. The note with it: measurement 1; m7G cap; 30 mM HEPES-KOH pH 7.4, 100 mM KOAc, 3 mM Mg(OAc)2, 2 mM DTT, 1 mM GDPNP, 26 C, 2 h; native 4% THEM gel.
The test system of series [14] is yeast 43S PIC: 40S+eIF1+eIF1A+eIF2 (Met-tRNAi TC); for mRNA recruitment also eIF5, eIF4A, eIF4B, eIF4E-eIF4G;eIF3 (g KLF) (Saccharomyces cerevisiae;Saccharomyces cerevisiae). The experiment in a line: EMSA. The note with it: measurement 1; m7G cap; 30 mM HEPES-KOH pH 7.4, 100 mM KOAc, 3 mM Mg(OAc)2, 2 mM DTT, 1 mM GDPNP, 26 C, 2 h; native 4% THEM gel.
Series [15] relates to yeast 43S PIC: 40S+eIF1+eIF1A+eIF2 (Met-tRNAi TC); for mRNA recruitment also eIF5, eIF4A, eIF4B, eIF4E-eIF4G;eIF3 (i Q258R) (Saccharomyces cerevisiae;Saccharomyces cerevisiae). Kind of series: EMSA. The conditions noted are these: measurement 1; m7G cap; 30 mM HEPES-KOH pH 7.4, 100 mM KOAc, 3 mM Mg(OAc)2, 2 mM DTT, 1 mM GDPNP, 26 C, 2 h; native 4% THEM gel.
Series [16] relates to yeast 43S PIC: 40S+eIF1+eIF1A+eIF2 (Met-tRNAi TC); for mRNA recruitment also eIF5, eIF4A, eIF4B, eIF4E-eIF4G;eIF3 WT (a/b/c/i/g) (Saccharomyces cerevisiae;Saccharomyces cerevisiae). Kind of series: EMSA. The conditions noted are these: measurement 1; m7G cap; 30 mM HEPES-KOH pH 7.4, 100 mM KOAc, 3 mM Mg(OAc)2, 2 mM DTT, 1 mM GDPNP, 26 C, 2 h; native 4% THEM gel.
Series [17] relates to yeast 43S PIC: 40S+eIF1+eIF1A+eIF2 (Met-tRNAi TC); for mRNA recruitment also eIF5, eIF4A, eIF4B, eIF4E-eIF4G;eIF3 a/b/c sub-complex (Saccharomyces cerevisiae;Saccharomyces cerevisiae). Kind of series: EMSA. The conditions noted are these: 30 mM HEPES-KOH pH 7.4, 100 mM KOAc, 3 mM Mg(OAc)2, 2 mM DTT, 1 mM GDPNP, 26 C, 2 h, native 4% THEM gel; for binding signal: measurement 1, m7G cap.

Where [18] appears, read: no mRNA, ~3 fold weaker than WT, mean of 2, column assigned from text, Met-charged.

“And” between values parts separate entries of the source, which are not always exact repeats. Equal entries are not always repeated.

As to “eIF3 variant ∆60 (eIF3c/Nip1 CTD) (from UniProt P38249 1-964; P06103 1-763; P32497 1-752; P40217 1-347; Q04067 1-274) (complex)”, the Kd in series [1] was 41 nM and 52 nM; in [2] it was 27 nM and 21 nM.
As for mid-AUG model mRNA, the binding signal in [3] stood at 88.2 % recruited; in series [4], 96.8 % recruited; in series [5], 97.1 % recruited; in [6], 93.3 % recruited; in series [7], 93.8 % recruited; in [8] it was 95.9 % recruited. Besides, the binding signal in [9] came out at 94.6 % recruited; in [10], 77.8 % recruited; in series [11], 96.1 % recruited; in series [12] it was 97.7 % recruited; in series [13], 96.9 % recruited; in series [14], 98.3 % recruited. For the same substance, the binding signal worked out at 97.7 % recruited in series [15], 98.5 % recruited in series [16] and 81.6 % recruited in [17].
Take “eIF3 (wild type) (from UniProt P38249 1-964; P06103 1-763; P32497 1-812; P40217 1-347; Q04067 1-274) (complex)”: the Kd in series [2] was 43 nM and 24 nM.
On to 5'11-AUG model mRNA, for which the binding signal was 90.9 % recruited in series [3] (columns as in Fig 5); 97.8 % recruited in series [5]; 94.6 % recruited in series [6]; 91.8 % recruited in series [7]; 97.9 % recruited in series [16]; 66.7 % recruited in [17].
For the substance 3'5-AUG model mRNA, the binding signal is 1.04 % recruited in [3] (almost no recruitment); 67.2 % recruited in series [4]; 73.3 % recruited in series [5]; 77.1 % recruited in series [6]; 73.6 % recruited in series [7]; 5.17 % recruited in series [8] (text: no recruitment). Also, the binding signal in series [9] is 77.9 % recruited; in series [10], 66.2 % recruited; in [11] it was 75.1 % recruited; in series [12] it was 81 % recruited; in [13], 78.3 % recruited; in series [14], 72.6 % recruited. Besides, the binding signal in series [15] is 71 % recruited; in series [16] it was 78.9 % recruited; in [17], 50.3 % recruited.
Consider 5'5-AUG model mRNA, for which the binding signal in series [3] was 68.2 % recruited; in series [4], 82.5 % recruited; in [5] it was 62.5 % recruited; in [6], 58.2 % recruited; in [7], 57.7 % recruited; in [8], 91.7 % recruited. Moreover, the binding signal in series [9] was found to be 79.9 % recruited; in series [10] it was 69.4 % recruited; in series [11], 85.3 % recruited; in [12], 80.1 % recruited; in series [13], 87.9 % recruited; in [14], 84.7 % recruited. Moreover, the binding signal in [15] was 80.3 % recruited; in [16] it was 84.1 % recruited; in [17], 32.1 % recruited.
With 3'17-AUG model mRNA, the results for the binding signal in series [3], in series [8] and in series [16] were 71.4 % recruited, 89.9 % recruited and 97.2 % recruited, respectively.
As for initiator tRNAiMet, the Kd in series [9] (setting [18]) worked out at 42.3 nM; in series [10] (no mRNA, ~2 fold weaker than WT, mean of 2, column assigned from text, Met-charged), 28.1 nM; in series [17] (setting [18]) it was 47.8 nM.
Turning to “eIF3 variant R731I (eIF3a/Tif32 CTD) (from UniProt P38249 1-964; P06103 1-763; P32497 1-812; P40217 1-347; Q04067 1-274) (complex)”, the Kd in [2] amounted to 126 nM.
Take “eIF3a/b/c sub-complex lacking the i and g subunits (from UniProt P38249 1-964; P06103 1-763; P32497 1-812)”: the Kd in [1] is 106 nM and 111 nM; in series [2], 87 nM and 98 nM.
